Results as given in publication PMC3268024, “Role of Linkers between Zinc Fingers in Spacing Recognition by Plant TFIIIA-Type Zinc-Finger Proteins”.
Where a chain is given by its changes, count along the chain named.

T1: ZPT2-14ZF (UniProt O22086 41-117)
T1 sequence: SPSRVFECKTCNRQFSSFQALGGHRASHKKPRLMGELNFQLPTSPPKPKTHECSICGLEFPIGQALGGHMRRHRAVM

B1: AGT-5-AGT (dsDNA)
DNA 1: CTCGAGAAATTTCCCGGAATTCCAGTGATCCAGTGGCCGGAATTTCCCGGGGGGATCC
DNA 2: GGATCCCCCCGGGAAATTCCGGCCACTGGATCACTGGAATTCCGGGAAATTTCTCGAG
B2: AGT-5-ACT (dsDNA)
DNA 1: B1 DNA 1 with G33C
DNA 2: B1 DNA 2 with C26G
B3: AGT-10-ACT (dsDNA)
DNA 1: CTCGAGAAATTTCCCGGAATTCCAGTGGGAAATTTCACTGGCCGGAATTTCCCGGGGGGATCC
DNA 2: GGATCCCCCCGGGAAATTCCGGCCAGTGAAATTTCCCACTGGAATTCCGGGAAATTTCTCGAG
B4: ACT-10-AGT (dsDNA)
DNA 1: B3 DNA 1 with G25C, C38G
DNA 2: B3 DNA 2 with G26C, C39G

Biological target: T1, ZPT2-14ZF
Test: EMSA; 25 mM HEPES-KOH pH 7.6, 40 mM KCl, 0.1% NP-40, 10 uM ZnCl2, 1 mg/mL BSA, 10% glycerol, 10 ug/mL poly(dI-dC), 1 mM DTT, 0.15 nM probe, 25 min at 20 C
Details: protein: recombinant; tags: MBP fusion cleaved with TEV protease; untagged; label: 32P end

Binder	Kd [nM]
B1	9.1 ± 1.2
B2	21.7 ± 3.4
B3	10.4 ± 1.6
B4	11.6 ± 1.9
